Measurements published in article PMC11729909, “FOXP1 phosphorylation antagonizes its O-GlcNAcylation in regulating ATR activation in response to replication stress” (The EMBO Journal, 2024).

Target: T1, His-tagged OGT (human, UniProt O15294 1-1046)
T1 construct: OGT, human, full length; Vector pet28a; also called His-OGT; pet28a-OGT; source: E. coli, purified
T1 sequence (looked up): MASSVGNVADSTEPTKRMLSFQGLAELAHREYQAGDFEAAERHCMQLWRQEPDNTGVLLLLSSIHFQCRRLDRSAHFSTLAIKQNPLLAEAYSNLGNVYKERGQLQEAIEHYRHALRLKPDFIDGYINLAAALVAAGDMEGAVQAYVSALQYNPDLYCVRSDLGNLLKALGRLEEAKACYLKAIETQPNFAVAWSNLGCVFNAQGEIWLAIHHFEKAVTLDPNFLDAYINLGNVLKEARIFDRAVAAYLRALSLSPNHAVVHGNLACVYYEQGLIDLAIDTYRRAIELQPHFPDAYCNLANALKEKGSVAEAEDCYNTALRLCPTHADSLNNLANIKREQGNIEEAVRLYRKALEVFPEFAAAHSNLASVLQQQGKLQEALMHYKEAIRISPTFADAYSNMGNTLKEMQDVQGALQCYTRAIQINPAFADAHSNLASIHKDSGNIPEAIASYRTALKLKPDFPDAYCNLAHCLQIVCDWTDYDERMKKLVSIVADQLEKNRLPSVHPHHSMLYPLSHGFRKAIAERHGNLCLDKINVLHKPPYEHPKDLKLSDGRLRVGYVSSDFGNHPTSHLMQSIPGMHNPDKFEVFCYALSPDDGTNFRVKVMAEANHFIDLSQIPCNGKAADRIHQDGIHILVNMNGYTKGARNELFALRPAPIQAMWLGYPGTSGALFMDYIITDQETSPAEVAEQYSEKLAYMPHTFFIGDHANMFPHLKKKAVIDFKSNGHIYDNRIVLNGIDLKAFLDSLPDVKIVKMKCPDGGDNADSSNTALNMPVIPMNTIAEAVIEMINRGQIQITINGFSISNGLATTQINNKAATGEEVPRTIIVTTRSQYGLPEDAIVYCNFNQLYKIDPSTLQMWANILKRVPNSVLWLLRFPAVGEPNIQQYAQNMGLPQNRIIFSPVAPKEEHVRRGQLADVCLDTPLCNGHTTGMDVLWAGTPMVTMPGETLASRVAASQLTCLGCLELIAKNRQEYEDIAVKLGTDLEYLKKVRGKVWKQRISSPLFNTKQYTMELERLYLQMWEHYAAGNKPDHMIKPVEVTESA
Assay: pull-down; GST pull-down: His-tagged OGT incubated with wild-type GST-tagged FOXP1 or its mutant lacking AA 556–610, glutathione beads, immunoblot
Conditions: both partners purified

B1: GST-tagged FOXP1 (wild type, full length) (natural protein, human, UniProt Q9H334 1-677, looked up)
chain: MMQESGTETKSNGSAIQNGSGGSNHLLECGGLREGRSNGETPAVDIGAADLAHAQQQQQQALQVARQLLLQQQQQQQVSGLKSPKRNDKQPALQVPVSVAMMTPQVITPQQMQQILQQQVLSPQQLQVLLQQQQALMLQQQQLQEFYKKQQEQLQLQLLQQQHAGKQPKEQQQVATQQLAFQQQLLQMQQLQQQHLLSLQRQGLLTIQPGQPALPLQPLAQGMIPTELQQLWKEVTSAHTAEETTGNNHSSLDLTTTCVSSSAPSKTSLIMNPHASTNGQLSVHTPKRESLSHEEHPHSHPLYGHGVCKWPGCEAVCEDFQSFLKHLNSEHALDDRSTAQCRVQMQVVQQLELQLAKDKERLQAMMTHLHVKSTEPKAAPQPLNLVSSVTLSKSASEASPQSLPHTPTTPTAPLTPVTQGPSVITTTSMHTVGPIRRRYSDKYNVPISSADIAQNQEFYKNAEVRPPFTYASLIRQAILESPEKQLTLNEIYNWFTRMFAYFRRNAATWKNAVRHNLSLHKCFVRVENVKGAVWTVDEVEFQKRRPQKISGNPSLIKNMQSSHAYCTPLNAALQASMAENSIPLYTTASMGNPTLGNLASAIREELNGAMEHTNSNESDSSPGRSPMQAVHPVHVKEEPLDPEEAEGPLSLVTTANHSPDFDHDRDYEDEPVNEDME
notes: FOXP1, human, full length; Vector pGEX-4T-1; also called GST-FOXP1; pGEX-4T-1-FOXP1; source: E. coli, purified
B1: binds.
